# B1: scFv-IgAb_167 (bispecific antibody)
# heavy: QVQLQESGPGLVKPSETLSLTCTVSGGSVSSGSYYWSWIRQPPGKGLEWIGYIYYSGSTNYNPSLKSRVTISVDTSKNQFSLKLSSVTAADTAVYYCARNPISIPAFDIWGQGTMVTVSSASTKGPSVFPLAPSSKSTSGGTAALGCLVKDYFPEPVTVSWNSGALTSGVHTFPAVLQSSGLYSLSSVVTVPSSSLGTQTYICNVNHKPSNTKVDKKVEPKSCDKTHTCPPCPAPEFEGGPSVFLFPPKPKDTLMISRTPEVTCVVVAVSHEDPEVKFNWYVDGVEVHNAKTKPREEQYNSTYRVVSVLTVLHQDWLNGKEYKCKVSNKALPAPIEKTISKAKGQPREPQVYTLPPSREEMTKNQVSLTCLVKGFYPSDIAVEWESNGQPENNYKTTPPVLDSDGSFFLYSKLTVDKSRWQQGNVFSCSVMHEALHNHYTQKSLSLSPGGGGGSGGGGSGGGGSGGGGSGGGGSGGGGSSYVLTQPSSVSVAPGQTARITCGGNNIGSKSVHWYQQKPGQAPVLVIYQDKKRPSGIPERFSGSNSGNTATLTISGTQAMDEADYYCQVWDDYIVLFGGGTKLTVLGGSGGSGGSGGSGGSGGSGGSQVQLVQSGAEVKKPGESLKVSCKASGYTFTNYYMQWVRQAPGQGLEWMGIINPSGGVTSYAQKFQGRVTMTRDTSTSTVYMELSSLRSEDTAVYYCARGSAYYYDFADYWGQGTLVTVSS
# light: QPVLTQPPSVSVAPGKTARITCGGNNIGSKSVHWYQQKPGQAPVLVIYYDSDRPSGIPERFSGSNSGNTATLTISRVEAGDEADYYCQVWDTSSDHVLFGGGTKLTVLGQPKAAPSVTLFPPSSEELQANKATLVCLISDFYPGAVTVAWKADSSPVKAGVETTTPSKQSNNKYAASSYLSLTPEQWKSHRSYSCQVTHEGSTVEKTVAPTECS
# B2: Bi-scDb-IgAb_06 (bispecific antibody)
# heavy: QVQLQESGPGLVKPSETLSLTCTVSGGSVSSGSYYWSWIRQPPGKGLEWIGYIYYSGSTNYNPSLKSRVTISVDTSKNQFSLKLSSVTAADTAVYYCARNPISIPAFDIWGQGTMVTVSSASTKGPSVFPLAPSSKSTSGGTAALGCLVKDYFPEPVTVSWNSGALTSGVHTFPAVLQSSGLYSLSSVVTVPSSSLGTQTYICNVNHKPSNTKVDKKVEPKSCDKTHTCPPCPAPEFEGGPSVFLFPPKPKDTLMISRTPEVTCVVVAVSHEDPEVKFNWYVDGVEVHNAKTKPREEQYNSTYRVVSVLTVLHQDWLNGKEYKCKVSNKALPAPIEKTISKAKGQPREPQVYTLPPSREEMTKNQVSLTCLVKGFYPSDIAVEWESNGQPENNYKTTPPVLDSDGSFFLYSKLTVDKSRWQQGNVFSCSVMHEALHNHYTQKSLSLSPGGGGGSGGGGSSYVLTQPSSVSVAPGQTATISCGGHNIGSKNVHWYQQRPGQSPVLVIYQDNKRPSGIPERFSGSNSGNTATLTISGTQAMDEADYYCQVWDNYSVLFGGGTKLTVLGGSGGSQVQLVQSGAEVKKPGESLKVSCKASGYTFTSYYMHWVRQAPGQGLEWMGAIEPMYGSTSYAQKFQGRVTMTRDTSTSTVYMELSSLRSEDTAVYYCARGSAYYYDFADYWGQGTLVTVSSGGSGGSGGSGGSGGSGGSSYVLTQPSSVSVAPGQTATISCGGHNIGSKNVHWYQQRPGQSPVLVIYQDNKRPSGIPERFSGSNSGNTATLTISGTQAMDEADYYCQVWDNYSVLFGGGTKLTVLGGSGGSQVQLVQSGAEVKKPGESLKVSCKASGYTFTSYYMHWVRQAPGQGLEWMGAIEPMYGSTSYAQKFQGRVTMTRDTSTSTVYMELSSLRSEDTAVYYCARGSAYYYDFADYWGQGTLVTVSS
# light: QPVLTQPPSVSVAPGKTARITCGGNNIGSKSVHWYQQKPGQAPVLVIYYDSDRPSGIPERFSGSNSGNTATLTISRVEAGDEADYYCQVWDTSSDHVLFGGGTKLTVLGQPKAAPSVTLFPPSSEELQANKATLVCLISDFYPGAVTVAWKADSSPVKAGVETTTPSKQSNNKYAASSYLSLTPEQWKSHRSYSCQVTHEGSTVEKTVAPTECS
# B3: aBi-scDb-Fc_01 (bispecific antibody)
# chain 1: SYVLTQPSSVSVAPGQTATISCGGHNIGSKNVHWYQQRPGQSPVLVIYQDNKRPSGIPERFSGSNSGNTATLTISGTQAMDEADYYCQVWDNYSVLFGGGTKLTVLGGSGGSQVQLVQSGAEVKKPGESLKVSCKASGYTFTSYYMHWVRQAPGQGLEWMGAIEPMYGSTSYAQKFQGRVTMTRDTSTSTVYMELSSLRSEDTAVYYCARGSAYYYDFADYWGQGTLVTVSSGGSGGSGGSGGSGGSGGSSYVLTQPSSVSVAPGQTATISCGGHNIGSKNVHWYQQRPGQSPVLVIYQDNKRPSGIPERFSGSNSGNTATLTISGTQAMDEADYYCQVWDNYSVLFGGGTKLTVLGGSGGSQVQLVQSGAEVKKPGESLKVSCKASGYTFTSYYMHWVRQAPGQGLEWMGAIEPMYGSTSYAQKFQGRVTMTRDTSTSTVYMELSSLRSEDTAVYYCARGSAYYYDFADYWGQGTLVTVSSGGGGSDKTHTCPPCPAPEFEGGPSVFLFPPKPKDTLMISRTPEVTCVVVAVSHEDPEVKFNWYVDGVEVHNAKTKPREEQYNSTYRVVSVLTVLHQDWLNGKEYKCKVSNKALPAPIEKTISKAKGQPREPQVYTLPPSREEMTKNQVSLTCLVKGFYPSDIAVEWESNGQPENNYKTTPPVLDSDGSFFLTSKLTVDKSRWQQGNVFSCSVMHEALHNHYTQKSLSLSPGAAAGSHHHHHH
# chain 2: SYVLTQPSSVSVAPGQTATISCGGHNIGSKNVHWYQQRPGQSPVLVIYQDNKRPSGIPERFSGSNSGNTATLTISGTQAMDEADYYCQVWDNYSVLFGGGTKLTVLGGSGGSQVQLVQSGAEVKKPGESLKVSCKASGYTFTSYYMHWVRQAPGQGLEWMGAIEPMYGSTSYAQKFQGRVTMTRDTSTSTVYMELSSLRSEDTAVYYCARGSAYYYDFADYWGQGTLVTVSSGGSGGSGGSGGSGGSGGSSYVLTQPSSVSVAPGQTATISCGGHNIGSKNVHWYQQRPGQSPVLVIYQDNKRPSGIPERFSGSNSGNTATLTISGTQAMDEADYYCQVWDNYSVLFGGGTKLTVLGGSGGSQVQLVQSGAEVKKPGESLKVSCKASGYTFTSYYMHWVRQAPGQGLEWMGAIEPMYGSTSYAQKFQGRVTMTRDTSTSTVYMELSSLRSEDTAVYYCARGSAYYYDFADYWGQGTLVTVSSGGGGSDKTHTCPPCPAPEFEGGPSVFLFPPKPKDTLMISRTPEVTCVVVAVSHEDPEVKFNWYVDGVEVHNAKTKPREEQYNSTYRVVSVLTVLHQDWLNGKEYKCKVSNKALPAPIEKTISKAKGQPREPQVYTLPPSREEMTKNQVSLYCLVKGFYPSDIAVEWESNGQPENNYKTTPPVLDSDGSFFLYSKLTVDKSRWQQGNVFSCSVMHEALHNHYTQKSLSLSPGGGGGSGGGGSEVQLLESGGGLVQPGGSLRLSCAASGFTFSNYDMAWVRQAPGKGLEWVSSISTRGDITSYRDSVKGRFTISRDNSKNTLYLQMNSLRAEDTAVYYCARQDYYTDYMGFAYWGQGTLVTVSSGGGGSGGGGSGGGGSAIQMTQSPSSLSASVGDRVTITCRASEDIYNGLAWYQQKPGKAPKLLIYGASSLQDGVPSRFSGSGSGTEFTLTISSLQPEDEATYYCAGPHKYPLTFGGGTKVEIK
# B4: aBi-scDb-Fc_03 (bispecific antibody)
# chain 1: DKTHTCPPCPAPEFEGGPSVFLFPPKPKDTLMISRTPEVTCVVVAVSHEDPEVKFNWYVDGVEVHNAKTKPREEQYNSTYRVVSVLTVLHQDWLNGKEYKCKVSNKALPAPIEKTISKAKGQPREPQVYTLPPSREEMTKNQVSLTCLVKGFYPSDIAVEWESNGQPENNYKTTPPVLDSDGSFFLTSKLTVDKSRWQQGNVFSCSVMHEALHNHYTQKSLSLSPGGGGGSGGGGSSYVLTQPSSVSVAPGQTATISCGGHNIGSKNVHWYQQRPGQSPVLVIYQDNKRPSGIPERFSGSNSGNTATLTISGTQAMDEADYYCQVWDNYSVLFGGGTKLTVLGGSGGSQVQLVQSGAEVKKPGESLKVSCKASGYTFTSYYMHWVRQAPGQGLEWMGAIEPMYGSTSYAQKFQGRVTMTRDTSTSTVYMELSSLRSEDTAVYYCARGSAYYYDFADYWGQGTLVTVSSGGSGGSGGSGGSGGSGGSSYVLTQPSSVSVAPGQTATISCGGHNIGSKNVHWYQQRPGQSPVLVIYQDNKRPSGIPERFSGSNSGNTATLTISGTQAMDEADYYCQVWDNYSVLFGGGTKLTVLGGSGGSQVQLVQSGAEVKKPGESLKVSCKASGYTFTSYYMHWVRQAPGQGLEWMGAIEPMYGSTSYAQKFQGRVTMTRDTSTSTVYMELSSLRSEDTAVYYCARGSAYYYDFADYWGQGTLVTVSSAAAGSHHHHHH
# chain 2: SYVLTQPSSVSVAPGQTATISCGGHNIGSKNVHWYQQRPGQSPVLVIYQDNKRPSGIPERFSGSNSGNTATLTISGTQAMDEADYYCQVWDNYSVLFGGGTKLTVLGGSGGSQVQLVQSGAEVKKPGESLKVSCKASGYTFTSYYMHWVRQAPGQGLEWMGAIEPMYGSTSYAQKFQGRVTMTRDTSTSTVYMELSSLRSEDTAVYYCARGSAYYYDFADYWGQGTLVTVSSGGSGGSGGSGGSGGSGGSSYVLTQPSSVSVAPGQTATISCGGHNIGSKNVHWYQQRPGQSPVLVIYQDNKRPSGIPERFSGSNSGNTATLTISGTQAMDEADYYCQVWDNYSVLFGGGTKLTVLGGSGGSQVQLVQSGAEVKKPGESLKVSCKASGYTFTSYYMHWVRQAPGQGLEWMGAIEPMYGSTSYAQKFQGRVTMTRDTSTSTVYMELSSLRSEDTAVYYCARGSAYYYDFADYWGQGTLVTVSSGGGGSDKTHTCPPCPAPEFEGGPSVFLFPPKPKDTLMISRTPEVTCVVVAVSHEDPEVKFNWYVDGVEVHNAKTKPREEQYNSTYRVVSVLTVLHQDWLNGKEYKCKVSNKALPAPIEKTISKAKGQPREPQVYTLPPSREEMTKNQVSLYCLVKGFYPSDIAVEWESNGQPENNYKTTPPVLDSDGSFFLYSKLTVDKSRWQQGNVFSCSVMHEALHNHYTQKSLSLSPGGGGGSGGGGSEVQLLESGGGLVQPGGSLRLSCAASGFTFSNYDMAWVRQAPGKGLEWVSSISTRGDITSYRDSVKGRFTISRDNSKNTLYLQMNSLRAEDTAVYYCARQDYYTDYMGFAYWGQGTLVTVSSGGGGSGGGGSGGGGSAIQMTQSPSSLSASVGDRVTITCRASEDIYNGLAWYQQKPGKAPKLLIYGASSLQDGVPSRFSGSGSGTEFTLTISSLQPEDEATYYCAGPHKYPLTFGGGTKVEIK
# What was measured:
# Experiment in all cases: cell-based or functional assay
# [1] = target: T1, EGFR on tumor target cells (MCF-7, Daudi, DK-MG, HCT-116) (UniProt P00533 25-1210, limits assumed)
# [2] = target: CD16A on primary human NK cells (human, UniProt P08637 17-254)
# Sequence of CD16A on primary human NK cells (P08637 17-254 limits assumed): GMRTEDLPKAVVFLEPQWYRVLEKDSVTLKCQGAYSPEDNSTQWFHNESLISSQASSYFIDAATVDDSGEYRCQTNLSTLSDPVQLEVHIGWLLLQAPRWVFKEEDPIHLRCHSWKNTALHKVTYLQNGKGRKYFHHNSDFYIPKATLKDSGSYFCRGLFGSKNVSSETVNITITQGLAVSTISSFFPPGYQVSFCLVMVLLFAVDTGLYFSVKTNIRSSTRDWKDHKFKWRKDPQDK
# [3] = target: T1, EGFR on tumor target cells (MCF-7, …); remark: listed apart in the source
# [4] = target: T2, BCMA on MM.1S target cells (UniProt Q02223 1-184, limits assumed)
# T2 sequence (looked up): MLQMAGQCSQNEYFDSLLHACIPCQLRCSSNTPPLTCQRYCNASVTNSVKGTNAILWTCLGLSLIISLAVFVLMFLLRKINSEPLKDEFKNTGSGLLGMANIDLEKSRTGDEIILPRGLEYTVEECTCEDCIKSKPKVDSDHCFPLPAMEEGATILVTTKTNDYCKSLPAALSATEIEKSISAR
Binder,"EC50 [pM], 4 h calcein-release cytotoxicity on MCF-7 target cells, NK cells E:T 5:1 [1] [pM]","Emax [%], 4 h calcein-release cytotoxicity on MCF-7 target cells, NK cells E:T 5:1 [1] [%]","Emax [%], 4 h calcein-release NK cell fratricide assay, E:T 1:1 [2] [%]","EC50 [pM], 4 h calcein-release cytotoxicity on Daudi target cells, NK cells E:T 5:1 [3] [pM]","Emax [%], 4 h calcein-release cytotoxicity on Daudi target cells, NK cells E:T 5:1 [3] [%]","EC50 [pM], 4 h calcein-release cytotoxicity on BCMA+ MM.1S target cells, NK cells E:T 5:1 [4] [pM]","Emax [%], 4 h calcein-release cytotoxicity on BCMA+ MM.1S target cells, NK cells E:T 5:1 [4] [%]"
B1,8.8,17.9,2.8,46.8,8,–,–
B2,2.1,25,15,18.6,18.2,–,–
B3,–,–,–,–,–,1,46.4
B4,–,–,–,–,–,2.4,51
